Here are results for one molecule from US20210284751A1 (MELLITUS, published 2021).

For one test, the target named is T1, CD59 (human CD59, hCD59) (human, UniProt P13987 26-102).
T1 construct: also called non-glycated CD59
T1 sequence: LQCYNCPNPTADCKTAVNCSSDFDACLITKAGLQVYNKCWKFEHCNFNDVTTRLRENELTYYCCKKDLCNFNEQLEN
Kind of test: hybridoma antibody characterisation, method not described.

Test [1] deals with T2, K41 Amadori-modified glycated CD59 (GCD59) (human, UniProt P13987 26-102, Amadori-modified (glycated) lysine at K41, numbered on SEQ ID NO: 1).
T2 construct: also called Amadori-modified GCD59; Amadori-modified hGCD59
T2 sequence: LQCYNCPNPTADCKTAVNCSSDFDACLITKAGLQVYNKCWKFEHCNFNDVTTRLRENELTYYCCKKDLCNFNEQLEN
Kind of test: sandwich ELISA on urine dilutions (6, 3, 1.5, 0.75, 0.37, 0.18 %): H9 capture, D2 detection, HRP secondary antibody, OD 450 nm converted to SPU with the calibration curve. The method, then:
GCD59 detection in urine samples was carried out using detection antibody D2, described above, specific for Amadori-modified GCD59. Assay plates were first coated with CD59 capture antibody. H9. Urine samples were obtained from two subjects, one known to have a high level of HbA1C (HbA1C-H) and one known to have a low level of HbA1C (HbAC1-L). High levels of HbA1C are a known indicator of elevated blood glucose. Samples were prepared by first adding beta-mercaptoethanol (BME) to a final concentration of 5%. Samples were then boiled at 100° C. for 5 min and centrifuged to pellet any debris. Supernatants were then isolated for the assay. A surrogate compound standard, as shown in FIG. 27 of U.S. Pat. No. 9,417,248, was used to prepare a dilution series for generating a calibration curve. The Amadori-modified GCD59 surrogate included synthetic compounds including capture and detection peptides linked by a flexible linker.
Standard samples, urine samples, as well as control samples [serum dilution buffer (50 mM Acetic acid/Na acetate; 2% NonIdet P40 Substitute; 0.15% Tween 20; 0.1% Triton X-100; 50 ppm ProClin 300) only] were added to the assay plate in triplicate. Urine samples were further diluted using serum dilution buffer to create a series of conditions ranging from 6% v/v urine sample to 0.2% urine sample in serum dilution buffer. […]

B1: antibody H9 (clone H9), CD59 capture antibody (antibody, mouse IgG1, kappa, V domains shown)
VH: EVQLVESGGDLVKPGGSLKLSCAASGFTFSSYGMSWVRQSPDKRMEWVATISSGGSYTYYPDSVKGRFTVSRDNAKNTLYLQMSSLRSEDTAIFYCVRDRYDGMDYWGQGTSVTVSS
VL: DVVMTQSPLSLPVSLGDQASISCRSSQSLVHSNGNTYLQWYLQKPGQSPNLLIYKVSNRFSGVPDRFSGSGSGTDFTLKISRVEAEDLGVYFCSQSTHVPFTFGSGTKLEIKR
notes: Mouse hybridoma monoclonal antibody
For B1, the binding result with CD59 (human CD59, hCD59) is on record as “binds”; in test [1], “binds”.
